Source: publication PMC10667646

Target: T1, His-Lmo2795 (RpiR-family transcriptional regulator) (Listeria monocytogenes) (UniProt Q8Y3P0)
T1 sequence: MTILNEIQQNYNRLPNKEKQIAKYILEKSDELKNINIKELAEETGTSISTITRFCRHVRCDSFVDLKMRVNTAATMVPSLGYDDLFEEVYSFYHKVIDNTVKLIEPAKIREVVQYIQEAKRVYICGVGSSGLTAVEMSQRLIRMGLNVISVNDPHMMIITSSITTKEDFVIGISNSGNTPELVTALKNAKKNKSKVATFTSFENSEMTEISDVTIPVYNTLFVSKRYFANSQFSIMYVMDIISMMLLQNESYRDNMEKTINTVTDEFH
Assay: EMSA
Settings: 10 mM Tris-HCl pH 7.5, 50 mM NaCl, 10% glycerol, 5 mM EDTA, 20 mM DTT, 25 C, 20 min; 8% native PAGE in 0.5x TBE at 4 C

Sequence	binding
CTTTAATATCCTCTAAGCCAGCATTTTTGATTTTTTTCTGTAGCACCGTCGCGCCCATTGCACTGGATCCAAGCCCCGCATCACAAGCATAGGCGATTCTTTTAACATTTTTAAAATTAAAATCATCTACTGGAGCTTCGAAAACAGAGGAAATACTACTTTTTTTGCCTTTAAGACCTTCCATTTTCTTCGCTGCATCTTG (double strand) [unspecific control, region within the lmo2795-nanE operon]	no binding
CGGAACACCCAACAAATTACCAATCGAATAAACTAAAAAAGTCCTTTCAAACGAAAGGACTTTTTATTTTTAACAACAACGTCATTTTTTAAAGCTAGTTTCCGCAACTATCCACGCTAAAATATGAAAATCATTTTCATTTAATCGATATTGATAAAATCATTTTCTTGTGATATAGTCTGTTTGAAAACGCATACTTTACACTGAAACACAGTATAGAGGAGGAGTATCAGTGGGCAATTCTGTTATGGAAAAAATCAAAGGTGGGTTAG (double strand) [lmo2795-nanE operon upstream (promoter) region]	binds
